{
  "source": "paper PMC3938326",
  "biological_target": "T1, hPh1 FCS domain (Polyhomeotic homolog 1) (human, UniProt P78364 783-828)",
  "T1 chain": "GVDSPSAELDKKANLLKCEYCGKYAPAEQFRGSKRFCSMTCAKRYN",
  "experiment": "NMR HSQC titration",
  "data": [
    {"binder": "GGGCACGCGUAUUGCCCUAGUGGCCGGCGUGCCC (structured_RNA)", "note": "[34nt RNA]", "values": [
      {"measurement": "Kd", "value": "3000 ± 1100", "unit": "µM"}
    ]}
  ]
}
